We go through 62 molecules from US20040092720A1 (US Dept. of Health and Human Services, published 2004).

First the molecules themselves.
B1: Peptide B34 (peptide)
peptide: PRSTPSLTTKAVLLVRKFQNA
notes: alanine-scan variant of the domain II 21-mer
B2: Peptide B47 (peptide)
peptide: PRSTPSATTKAVLLVRKFQNS
notes: as for B1
B3: Peptide B35 (peptide)
peptide: PRSTPSLTTKAVLLVRKFQAS
notes: as for B1
B4: Peptide B44 (peptide)
peptide: PRSTPSLTTAAVLLVRKFQNS
notes: as for B1
B5: Peptide B36 (peptide)
peptide: PRSTPSLTTKAVLLVRKFANS
notes: as for B1
B6: Peptide B43 (peptide)
peptide: PRSTPSLTTKAALLVRKFQNS
notes: as for B1
B7: Peptide B37 (peptide)
peptide: PRSTPSLTTKAVLLVRKAQNS
notes: as for B1
B8: Peptide B46 (peptide)
peptide: PRSTPSLATKAVLLVRKFQNS
notes: as for B1
B9: Peptide B40 (peptide)
peptide: PRSTPSLTTKAVLLARKFQNS
notes: as for B1
B10: Peptide B41 (peptide)
peptide: PRSTPSLTTKAVLAVRKFQNS
notes: as for B1
B11: Peptide B38 (peptide)
peptide: PRSTPSLTTKAVLLVRAFQNS
notes: as for B1
B12: Peptide B42 (peptide)
peptide: PRSTPSLTTKAVALVRKFQNS
notes: as for B1
B13: Peptide B39 (peptide)
peptide: PRSTPSLTTKAVLLVAKFQNS
notes: as for B1
B14: Peptide B45 (peptide)
peptide: PRSTPSLTAKAVLLVRKFQNS
notes: as for B1
B15: Peptide C45 (peptide)
peptide: SSFYRLRFALRYRAERSKTFT
notes: alanine-scan variant of the domain III 21-mer
B16: Peptide C47 (peptide)
peptide: SSFYRLAFELRYRAERSKTFT
notes: as for B15
B17: Peptide C39 (peptide)
peptide: SSFYRLRFELRYRAEASKTFT
notes: as for B15
B18: Peptide C43 (peptide)
peptide: SSFYRLRFELAYRAERSKTFT
notes: as for B15
B19: Peptide C44 (peptide)
peptide: SSFYRLRFEARYRAERSKTFT
notes: as for B15
B20: Peptide C40 (peptide)
peptide: SSFYRLRFELRYRAARSKTFT
notes: as for B15
B21: Peptide C41 (peptide)
peptide: SSFYRLRFELRYAAERSKTFT
notes: as for B15
B22: Peptide C35 (peptide)
peptide: SSFYRLRFELRYRAERSKTAT
notes: as for B15
B23: Peptide C36 (peptide)
peptide: SSFYRLRFELRYRAERSKAFT
notes: as for B15
B24: Peptide C46 (peptide)
peptide: SSFYRLRAELRYRAERSKTFT
notes: as for B15
B25: Peptide C38 (peptide)
peptide: SSFYRLRFELRYRAERAKTFT
notes: as for B15
B26: Peptide C42 (peptide)
peptide: SSFYRLRFELRARAERSKTFT
notes: as for B15
B27: Peptide C37 (peptide)
peptide: SSFYRLRFELRYRAERSATFT
notes: as for B15

The assay has as its target T1, recombinant human IL-6 (human, UniProt P05231 30-212, labeled with radioactive iodine).
T1 construct: Labeled probe in solution, added to wells that carry the synthetic peptides; also called IL-6 ligand; Interleukin-6
The assay is described as follows: radioiodinated IL-6 on peptide array. As for the experimental part: Synthetic peptide arrays were constructed in 96-well microtiter plates in accordance with the method set forth in WO 91/02714 (Saxinger), and used to test the binding of recombinant human IL-6 that had been labeled with radioactive iodine (radiolabeling by standard methods). After incubating the radiolabeled IL-6 ligand in a well with each synthetic peptide, a washing step was performed to remove unbound label, and the relative level of radioactivity remaining in each well of the plate was evaluated to determine the relative affinity of each peptide for IL-6 ligand.
On to FELRYRAERSKTFT [Peptide C24], for which the Counts/minute bound was determined as 5110 counts/minute. With FYRLRFELRYRAERSKTFT [Peptide C19] the figure was 10100 counts/minute; with RYRAERSKTFT [Peptide C27], 3150 counts/minute. AAGSHPSRWAGMGRRLL [Peptide A5]: the Counts/minute bound turned out to be 2750 counts/minute. For the molecule SSFYRLRFELRYR [Peptide C9], the Counts/minute bound was determined as 2170 counts/minute. As to SSFYRLRFEL [Peptide C12], the Counts/minute bound stood at 1030 counts/minute. SSFYRLRFELRYRAER [Peptide C6]: the Counts/minute bound is 2650 counts/minute.

RFELRYRAERSKTFT [Peptide C23]: the Counts/minute bound was 5310 counts/minute. For the molecule AAGSHPSRWAGMGRRLLLRS [Peptide A2], the Counts/minute bound is 9760 counts/minute. With SSFYRLRFELRYRAERSK [Peptide C4] the figure was 7620 counts/minute; with SSFYRLRFELRYRAE [Peptide C7], 1820 counts/minute. SSFYRL (also called SSFYRL) [Peptide C16]: the Counts/minute bound came out at 865 counts/minute. For LRYRAERSKTFT [Peptide C26], the Counts/minute bound is 6380 counts/minute. As for SSFYRLR (also called SSFYRLR) [Peptide C15], the Counts/minute bound amounted to 991 counts/minute. Regarding ERSKTFT (also called ERSKTFT) [Peptide C31], the Counts/minute bound is 1030 counts/minute.

SSFYRLRFELRY [Peptide C10]: the Counts/minute bound was determined as 1350 counts/minute. For SSFYRLRFELRYRAERSKTF [Peptide C2], the Counts/minute bound worked out at 13800 counts/minute. Under RAERSKTFT [Peptide C29] stands 1430 counts/minute; under SSFYRLRFE [Peptide C13], 1020 counts/minute; under ELRYRAERSKTFT [Peptide C25], 2200 counts/minute.

On to SSFYRLRFELRYRAERS [Peptide C5], for which the Counts/minute bound turned out to be 4710 counts/minute. As to SSFYRLRFELRYRAERSKT [Peptide C3], the Counts/minute bound was 8210 counts/minute. Under RLRFELRYRAERSKTFT [Peptide C21] stands 5990 counts/minute; under SSFYRLRFELR [Peptide C11], 1130 counts/minute. As to SSFYRLRF [Peptide C14], the Counts/minute bound turned out to be 952 counts/minute. For the molecule SFYRLRFELRYRAERSKTFT [Peptide C18], the Counts/minute bound worked out at 12800 counts/minute. As to B1, the Counts/minute bound amounted to 11400 counts/minute. For the molecule B2, the Counts/minute bound was determined as 8570 counts/minute. Turning to B3, the Counts/minute bound amounted to 13200 counts/minute. For the molecule B4, the Counts/minute bound amounted to 19500 counts/minute. On to B5, for which the Counts/minute bound worked out at 10100 counts/minute. With B6 the figure was 7160 counts/minute; with B7, 11600 counts/minute. With B8 the figure was 7680 counts/minute; with B9, 4540 counts/minute; with B10, 3760 counts/minute. For B11, the Counts/minute bound came to 11100 counts/minute. For B12, the Counts/minute bound amounted to 3840 counts/minute. Turning to B13, the Counts/minute bound turned out to be 10800 counts/minute. For the molecule B14, the Counts/minute bound was determined as 7490 counts/minute. Consider RSKTFT (also called RSKTFT) [Peptide C32], for which the Counts/minute bound worked out at 1340 counts/minute. Under LRFELRYRAERSKTFT [Peptide C22] stands 9610 counts/minute; under AERSKTFT [Peptide C30], 1200 counts/minute. SSFYRLRFELRYRAERSKTFA [Peptide C34]: the Counts/minute bound stood at 17000 counts/minute.

With B15, the Counts/minute bound came out at 26800 counts/minute.

For B16, the Counts/minute bound stood at 9760 counts/minute.

As for B17, the Counts/minute bound is 3430 counts/minute.

As for B18, the Counts/minute bound worked out at 7550 counts/minute. With B19, the Counts/minute bound came to 14100 counts/minute. Under B20 stands 17300 counts/minute; under B21, 6740 counts/minute. As for B22, the Counts/minute bound amounted to 14800 counts/minute.

For B23, the Counts/minute bound amounted to 15000 counts/minute. Under B24 stands 13400 counts/minute; under B25, 12300 counts/minute. For the molecule B26, the Counts/minute bound came out at 17500 counts/minute. For B27, the Counts/minute bound was 7220 counts/minute. SSFYRLRFELRYRA [Peptide C8]: the Counts/minute bound came to 2510 counts/minute. With AAGSHPSRWAGMGRRLLL [Peptide A4] the figure was 5280 counts/minute; with YRAERSKTFT [Peptide C28], 2400 counts/minute. For YRLRFELRYRAERSKTFT [Peptide C20], the Counts/minute bound stood at 7570 counts/minute. With AAGSHPSRWAGMGRRLLLR [Peptide A3] the figure was 8010 counts/minute.
